# Laboratory results as given in the supplement of paper PMC12042874.
# ± gives the uncertainty stated by the source.
# Assay: amyloid nucleation score (Sup35N fusion, yeast selection) (log enrichment); library NNK2; higher = more nucleation; inactive = no reads after selection
# Procedure, shortened: (§1)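 On medium lacking adenine and uracil, psi-negative yeast expressing peptides of 20 random codons fused to Sup35N were grown 7 days at 30°C after a 24-hour induction with 100 μM copper sulfate. Illumina sequencing of input and output plasmid inserts gave the reads, and sequences under 100 input reads were excluded. The nucleation score is the DiMSum log enrichment of output over input reads, centred on the mode score of non-aggregating sequences.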
row,Substance,amyloid nucleation score
1,CFHVITVNPGLQ,1.37 ± 0.39
2,YLVGCKDSRTSLSSLICIRL,8.842 ± 0.03
3,HNSNYHIYGWVMVRRRIGYI,inactive
4,MSLLV,5.695 ± 0.029
5,AINCKTGRKLNWIVFGRFTV,-0.315 ± 0.25
6,LFVYWV,0.126 ± 0.38
7,NDIMYSVSSYCWWSFRSSVF,2.06 ± 0.15
8,TVLLGHLEGRVYWEPMIQQV,0.36 ± 0.64
9,VIVVRNQRKFVTSDLPLKVC,1.04 ± 0.35
10,GAIDLMDALRCPAKTDTR,0.811 ± 0.67
11,DLGYDLTINWAFERLADRVN,-1.46 ± 1
12,DAEIMMCYCKFSGFGSITWR,0.143 ± 0.5
13,RTGLTRYLLYFPV,0.326 ± 0.22
14,GVSNNALCSNRITSLNRPML,0.313 ± 0.17
15,RAANYCGLKQAWSGFKRCVA,0.496 ± 0.36
16,NAQSRVLAEETGLSNPPIML,-1.45 ± 0.62
17,RGIKNVWNL,0.461 ± 0.54
18,QVYCQAVNYKENRVYFMGVP,5.2 ± 0.054
19,RPAFTNLRQCQRAYPVGGRC,0.195 ± 0.53
20,ILGQAGMILFNKLAPRGALR,inactive
21,PSRVSVSYM,2.69 ± 0.076

row,Substance,amyloid nucleation score
1,CIELLYEYAIDLQAWVLLER,0.389 ± 0.66
2,RGANNGMCYFMTRRKWLLMV,0.813 ± 0.56
3,HLASFFSSVSYSSDLAYSGT,-1.02 ± 0.78
4,YAYAEWERNRWRRDDNLNVE,-0.251 ± 0.38
5,KWPHRYINTLVPLLIRWTYR,-0.421 ± 0.37
6,RMDVSYLAFVWSHN,3.5 ± 0.056
7,LKLYDKAR,0.213 ± 0.55
8,ITYLWYISVLYREMPLCCAS,0.237 ± 0.25
9,CLTYYTCLTWKMPCGIRHQG,0.428 ± 0.22
10,IHPRSFRNVCLSSHSEMGG,-0.813 ± 0.76
11,TWLIRPKWVSVQVIRMLPMV,1.11 ± 0.41
12,LFERFWFIL,0.187 ± 0.23
13,DVRSRVHWDMSDQQFIMWWV,-0.716 ± 1.1
14,VENLRNTIPKKEIGFSSVTG,-0.105 ± 0.3
15,IESSGWAGRGTYSTYLASNV,1.2 ± 0.66
16,SKSVWMRLVS,-0.58 ± 0.24
17,QTDMII,inactive
18,DLAELISVKYLVTVSLWAGS,0.621 ± 0.57
19,FYLRGHACDSSWSNLVVGLW,4.8 ± 0.083
20,TYQFMHVRLFRPMTSFIVYG,0.36 ± 0.56
21,PSYDVCSMDCLDEKDGFMWL,0.25 ± 0.62

row,Substance,amyloid nucleation score
1,SLYLNKSSSSGRIQLYGLFT,0.049 ± 1.1
2,ISDFQACIRGDRWDEKGYIS,inactive
3,RLNVISIQNAIMRVVRTKRF,3.61 ± 0.12
4,RHDSCMCFMTDQL,-0.864 ± 0.44
5,SKCIASFNLRSYCMSRLASS,-1.15 ± 1.1
6,LMCNKESSNPICGLWVCFWA,9.489 ± 0.037
7,MLSLVMRVGFNCFIT,0.208 ± 1.1
8,LIVVKCLSRRYCFCLLSVVV,0.303 ± 0.32
9,ELVRDASECRYIIVCLNSVA,-0.047 ± 0.65
10,TFPMEFLPF,-1.12 ± 0.49
11,VYKYNISFLEPKHESQAWNK,0.042 ± 0.63
12,FVYVIFQSNMGPYWRNRRLL,0.636 ± 0.81
13,SVNYVCISLVVM,7.14 ± 0.072
14,QVAIPHHTRIETASARRVHT,1.09 ± 0.51
15,LYRYSSG,inactive
16,CLNCI,-0.497 ± 1
17,QYGCMEYRHNKCNQREVCRY,0.281 ± 0.5
18,TSSFIRLNYSNALLNKFWSN,-1.99 ± 0.75
19,CWRVNRFYVQSSYMGFVWSV,-0.73 ± 1.1
20,VQFRAHSCLLA,0.841 ± 0.74
21,EIMSFSVRSKYAFWIPIAIC,-0.026 ± 0.53

# Assay: amyloid nucleation score (Sup35N fusion, yeast selection) (log enrichment); library NNK1; higher = more nucleation; inactive = no reads after selection
# Procedure, shortened: as §1
row,Substance,amyloid nucleation score
1,CNPSG,0.819 ± 0.51
2,KYRSCGNGIPLIISHLLVER,0.317 ± 0.26
3,IDMCYWISVPAKNVHVIDIP,1.29 ± 0.6
4,DDLSGRRELTLRQT,0.618 ± 0.49
5,LKASWRAGRATVREKGCKLA,0.505 ± 0.38
6,GSWATVWVVKDPEVADCCGL,-1.53 ± 1.6
7,EYFRSTCRRATLSDPSMMHH,0.185 ± 0.35
8,SGCPDPW,-0.047 ± 1.7
9,VVMYRALTNHN,0.949 ± 0.59
10,RYDSVFVIS,-0.129 ± 1.2
11,ATKSLRIYLARVMHETSTFG,-0.822 ± 0.61
12,HRRAFRQVVVTAGPKQASPM,0.001 ± 0.56
13,HSAALWIVWR,-0.358 ± 0.62
14,SHCYSLGMLKVWLGQIKTFG,1.8 ± 0.27
15,THLVTCKGGLSMPDLVYRHV,0.183 ± 0.28
16,ESTAQSEV,-0.237 ± 0.42
17,LLLRSAAESRVSLDEEARGT,0.191 ± 0.64
18,LSIIVHNCGVLVVSMTLTVI,-0.172 ± 1.6
19,QDLTEWTYSLAPFMVFHTRP,-0.519 ± 1.2
20,INYRLYGVIGVAGTGPG,0.1 ± 0.33
21,VLSRSMH,-0.206 ± 1.7
22,FVGSRRGLARVAEYGWLYHG,-0.464 ± 0.74

row,Substance,amyloid nucleation score
1,RLLSLLINMTVVVWLSRKT,2.43 ± 0.25
2,KIVCLKFYVIDMRSMLTVVS,2.54 ± 0.088
3,ASVFLNQLLPCNYSAVRMGS,0.134 ± 0.84
4,FLRALCSVGSRHTTPAFDYG,0.351 ± 0.43
5,WSTFYLFLSLDWKNYT,inactive
6,FSSCRPMIYLRCTEYNG,-0.41 ± 1.9
7,VDRVGIQYVLEWCSRRSGQV,0.04 ± 1.4
8,SPIVGTLFYFMLWNMSAHTR,1.96 ± 0.26
9,GKLSDINCLYSSDSLGCLGL,0.815 ± 0.9
10,LRSFIGRRS,0.272 ± 0.32
11,TTLWLVPYVC,0.529 ± 0.58
12,NLVYTTDT,0.467 ± 0.41
13,DSIGVTH,-0.002 ± 0.41
14,GNVSDYVVMIGVMVSLPCLI,-0.222 ± 0.56
15,LMWNLTLS,0.949 ± 0.97
16,GPALTHTHS,0.306 ± 0.63
17,NAPLEWSSGHASQIVLGHVT,-0.177 ± 0.69
18,AWGRDYEELSSPLGMKALTW,0.381 ± 0.31
19,LICQLGEPQFNKFHWICSLD,-0.39 ± 1.7
20,WLSSLARIWSRQMREYNS,0.64 ± 0.44
21,GSIERFTFISVYYRLTPLSG,-0.035 ± 0.54
22,STFSSVTGYKPCY,0.551 ± 1.2

row,Substance,amyloid nucleation score
1,EYGLVRTLPVFRRVRRKYVG,-0.666 ± 0.67
2,SRATVSFVSLGNLTFGTILC,1.72 ± 0.36
3,IFTLGVALFSIVM,4.24 ± 0.067
4,HYNFKDMNYKPLIVIEMHEW,5.33 ± 0.055
5,GLVVIGRSCDDYESIMTRSM,0.171 ± 0.41
6,SDYILCIPWPSGLS,0.734 ± 0.97
7,SRLEKKGNWPVYSTQAVWMT,-0.421 ± 0.42
8,TDSAVRDWTRR,0.532 ± 0.79
9,RLDYFLCITYMIDQDRWRIT,-0.254 ± 1.1
10,YLDGTNSMNAEGNLLNKAPV,0.189 ± 0.31
11,TYRVLGWMYTCW,-0.809 ± 1.1
12,SSSSVVLTRLQPTTGSYEMT,-0.667 ± 1.6
13,NNCYLDTSLSNLIRDGSSPV,-0.453 ± 0.64
14,SGMSGCPKCGSWGSNKWYLW,-0.004 ± 0.44
15,NVSYRSYRFVHWVNLVGSMA,inactive
16,IMRNVQTDA,0.383 ± 0.52
17,LFWNFRRTGAGLAAGLVVGL,-0.885 ± 1.4
18,WKFALSLTRSDWAGHGPGHE,2.02 ± 0.16
19,RLHPCRVATRPQHYT,inactive
20,SLESS,0.642 ± 0.62
21,CVVGLISGSPPIRSVFKCNR,0.156 ± 0.98
22,HLWLFAGYMLLLKPKLKVCT,-0.625 ± 0.41

row,Substance,amyloid nucleation score
1,RPTLDVIRNCRVDFAEKGGN,0.711 ± 0.35
2,IIIYRNYALMEYDVGRV,0.75 ± 0.76
3,EGVNYIMKDVLLVDTKVAEN,-0.175 ± 0.66
4,LLVCSKRSGLVSLLLVIYAF,-0.522 ± 1.4
5,SKRLLQL,-0.665 ± 0.87
6,IMKLYPLRQSG,0.453 ± 1.2
7,YGASI,0.136 ± 0.47
8,EYLFCCVCADLFNTWDKSLG,7.29 ± 0.052
9,VDLILRRFEMRSDSLFGLWE,-0.481 ± 0.58
10,QQLALPPWSCLWQ,0.095 ± 0.49
11,VFVVDIFLFVMNCPYDPLSR,2.6 ± 0.066
12,DETLEEPCT,0.017 ± 0.43
13,QYFKNDVKYVPFG,-0.514 ± 1.1
14,LKYFYR,0.44 ± 0.34
15,PMFSSGLT,0.099 ± 0.42
16,FGDGIDSNVSMVEN,inactive
17,DRHRLPILVFLITNRTQRMV,-0.098 ± 1.3
18,TVHVGTVPKFSYRFGIMGTE,-0.482 ± 0.66
19,GLLIGDT,0.437 ± 0.48
20,RYWYMTGMAMLNK,0.58 ± 0.84
21,IPGGLNKERPYWYCTQMAGT,1.25 ± 0.55
22,SVVRNESNSLVH,0.065 ± 0.28

row,Substance,amyloid nucleation score
1,TRWCVRERVSFKRAGQCDRV,inactive
2,YCTTAIGSKSLVDIWHAGCS,-0.412 ± 1.2
3,FASVDTRETSSGMGGISKTG,-0.742 ± 0.56
4,HMTLCRRGFISGQADYFVQ,0.275 ± 1.2
5,WSPEMNVVKFTLFYNRSSRF,7.13 ± 0.078
6,WDTTVWMIPFNARVFFVGLC,-0.083 ± 0.35
7,ELGPRPHTFLEFAGICVGGM,-0.422 ± 1.4
8,SLSYFSSFI,inactive
9,NYNQGRGYRSVSSNIIEGDK,1.74 ± 0.49
10,YCIPTVRVFL,0.575 ± 0.66
11,PMHSLTASYNDSHFRNRGVM,inactive
12,SRHFFTAKCQRPRFLWKSDR,-0.172 ± 1.2
13,FNHMLSMVGSRVCYLAMSFV,0.17 ± 0.58
14,YQCYSFRVNFGGCWLAQHLL,4.64 ± 0.13
15,RIYTTWGHYDNDHQIYLFRG,-0.601 ± 0.36
16,IHIWSSCLSNYKVILGAEVL,0.407 ± 0.28
17,KKGLLIVVVAHSERYVVDIA,-0.547 ± 0.44
18,SGVVE,-0.433 ± 0.39
19,RSEELYGQDVQEKSAGPRVS,-0.089 ± 1.2
